Three molecules from US20230047413A1 (Janssen / Centocor, published 2023) can be followed below.

The koff is the rate constant with which the complex falls apart. Read a low koff as a long-lived complex. By kon is commonly meant the second-order rate constant of association. A higher kon goes with faster complex formation. By EC50 is commonly meant the concentration needed to bring the measured effect to its halfway point. The low end stands for greater potency, the high end for weaker potency. As usually defined, the EC50 (read off the curve) is the concentration giving half of the maximal effect.

The target of test [1] is T1, PHF-tau (paired helical filament tau isolated from Alzheimer's disease brain) (human, UniProt P10636-8 2-441, limits assumed, hyper-phosphorylated, aggregated; sites not listed for the preparation).
T1 construct: also called enriched PHF-tau; ePHF-tau
T1 sequence (P10636 other isoform, or with tags, fused parts or gaps limits assumed): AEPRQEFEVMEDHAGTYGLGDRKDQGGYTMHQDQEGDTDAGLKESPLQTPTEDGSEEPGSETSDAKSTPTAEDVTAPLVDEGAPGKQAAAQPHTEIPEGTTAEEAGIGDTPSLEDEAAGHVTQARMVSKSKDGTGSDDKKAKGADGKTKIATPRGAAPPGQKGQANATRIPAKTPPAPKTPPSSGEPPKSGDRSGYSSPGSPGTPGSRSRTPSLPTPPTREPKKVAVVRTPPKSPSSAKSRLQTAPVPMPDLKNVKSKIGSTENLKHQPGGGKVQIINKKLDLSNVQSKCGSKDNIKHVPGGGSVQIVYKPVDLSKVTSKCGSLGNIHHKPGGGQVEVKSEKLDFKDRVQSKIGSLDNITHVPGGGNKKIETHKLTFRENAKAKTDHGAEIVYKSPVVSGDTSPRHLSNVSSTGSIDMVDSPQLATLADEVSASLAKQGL
Nature of the test: SPR ProteOn, PHF-tau capture-coupled via HT7, 1:1 model. As to the method: (§1) A subset of HFA-PT3 monoclonal antibodies was tested for binding to PHF-tau isolated from Alzheimer's disease brain. All interactions were studied at 25° C. using PBS pH 7.4, supplemented with 3 mM EDTA, and 0.005% Tween 20 as running or system buffer. HT7 (Pierce, catalog #MN1000), a mouse anti-tau antibody, was used as a positive control.
(§2) The interaction of anti-tau monoclonal antibodies with PHF-tau was analyzed by ProteOn using a biosensor surface prepared by capture-coupling PHF-tau using HT7 as the capture reagent. PHF-tau was prepared by 2-times centrifugation at 5000×g at 5° C. for 10 min; the supernatant from the second centrifugation was then diluted 1/40 in running buffer. To prepare the chip, HT7 was covalently immobilized to the surface of a GLC (ProteOn) sensor chip using the manufacturer's instructions for amine-coupling chemistry (˜5000 response units (RU)). The coupling buffer was 10 mM sodium acetate, pH 4.5. After HT7 immobilization, PHF-tau was injected and captured (˜300 RU) by HT7. After capture, PHF-tau was covalently immobilized to the sensor chip by activation of the chip using the manufacturer's instructions for amine-coupling chemistry. Remaining reactive sites were blocked by the injection of ethanolamine. After preparation and stabilization of the PHF-tau-modified surface and reference surface (containing no antigen), the anti-tau antibodies were diluted in the running buffer and injected in solution (0.12-75 nM in 5-fold dilutions). The association was monitored for 3 minutes (120 μL injected at 40 μL/min). The dissociation was monitored for 15 minutes. Regeneration of the sensor surface was performed using 10 mM Gly pH 2.0. The data for monoclonal antibodies were fit using a bivalent binding model where the apparent affinity (KD) was reported as the ratio of koff/kₒₙ. A Langmuir 1:1 binding model was used for kinetics analysis of Fabs.

The target of test [2] is T2, Peptide-2 (human, phosphothreonine 212, phosphothreonine 217 (tau 2N4R numbering); short chain biotin (SCBiot) and dPEG4 at the N-terminus; amide at the C-terminus).
T2 construct: also called pT212/pT217-tau peptide (Peptide-2)
T2 sequence (peptide, as listed by the source): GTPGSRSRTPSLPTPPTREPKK
As to the kind of experiment: SPR ProteOn, peptide captured, Fab as analyte; range of n=2. The method, then: (§3) A subset of HFA-PT3 monoclonal antibody variants, selected based on biophysical characterization and ELISA binding to PHF, were analyzed by Surface Plasmon Resonance (SPR) with a ProteOn XPR36 for binding to the following phosphopeptides: pT212/pT217-tau peptide (Peptide-2, SEQ ID NO: 48) and pT212-tau peptide (Peptide-8, SEQ ID NO: 54). All experiments were performed at 25° C. using PBST, pH 7.4, (Bio-Rad Cat#176-2720) as both running buffer and sample dilution buffer.
(§4) Fab/peptide binding. Biotinylated peptide was captured on a neutravidin-coated NLC biosensor chip pre-conditioned with PBST, and Fab was flowed over the surface to measure kinetic parameters. Approximately 5-10 RU of peptide was captured on the chip surface by diluting peptide to 10 ng/mL in PBST and injecting over the flow channels at 30 μL/min for 100 s. Serial dilutions of PT3 Fab (1.1 nM to 90 nM) were injected at 60 μL/min for 3 minutes (association phase), followed by 300 s of buffer only (dissociation phase).
(§5) Data were double referenced by subtraction of the interspot response, and the curves generated by the buffer only injection. The chip surface was regenerated with 0.85% phosphoric acid, followed by PBST injection before the next antibody titration injection. Data processing and analysis were performed using instrument software. The data were fit using a simple Langmuir 1:1 binding model.

The target of test [3] is T2, Peptide-2. Nature of the test: SPR ProteOn, peptide captured, Fab as analyte; range of n=2; lower end of n=2 range. As to the method:
as §3, §4, §5

For test [4], the target named is T3, tau phospho-peptide of the direct ELISA of Example 11.
T3 construct: also called pT217 peptide; pT212/pT217 peptide
As to the kind of experiment: direct ELISA, peptide coated. As to the method: (§6) Binding to tau phospho-peptide was analysed by ELISA where peptide (10 ng/mL) was directly coated to the plate overnight. […] After incubation with antibodies, plates were washed and 50 μL per well of HRPO labelled anti-Fab antibody (Jackson Immunoresearch laboratories) (diluted 1:10000 in blocking buffer). After another washing step detection was performed with “One step” TMB (Thermo Scientific) according to the manufacturers' instructions. Plates were analysed in EnVision® 2102 Multilabel Reader (Perkin Elmer, Waltham, Mass., USA). Binding curves were generated using GraphPad Prism7.0 software.
(In general: In an ELISA, binding on a coated surface is turned into a signal by an enzyme label.)

For test [5], the target named is T3, tau phospho-peptide of the direct ELISA …. As to the kind of experiment: direct ELISA on plate-coated tau phospho-peptide, Fabs. As to the method: as §6
The target of test [6] is T1, PHF-tau (paired helical filament tau …). As to the kind of experiment: SPR ProteOn, PHF-tau on chip.
For test [7], the target named is T2, Peptide-2. Nature of the test: SPR ProteOn, peptide captured, Fab as analyte; range of n=2; upper end of n=2 range. As to the method:
as §3, §4, §5

For test [8], the target named is T1, PHF-tau (paired helical filament tau …). Nature of the test: SPR ProteOn, PHF-tau capture-coupled via HT7, 1:1 model. As to the method:
(§7) Affinity matured monoclonal antibodies were tested for binding to PHF-tau isolated from Alzheimer's disease brain.
(§8) A GLC sensor chip was covalently immobilized with a mouse anti-tau antibody, HT7 (ThermoFisher, catalog# MN1000) using the vendor recommended protocol for amine-coupling chemistry (˜5000 response units, RU). The coupling buffer was 10 mM, pH 4.5 sodium acetate. PHF-tau was prepared by 2-times centrifugation at 5000×g in 5° C. for 10 min. […] After capture-coupling, the surface was activated and deactivated to generate a homogenous PHF-tau surface for antibody binding studies. The anti-tau antibodies and their Fabs (prepared in running buffer, 0.024-75 nM at 5-fold dilutions) were injected at 50 μL/min over the PHF-tau surface to measure binding. The association and dissociation profiles were monitored for 4 minutes and 2 hours, respectively. After dissociation, the sensor chip was regenerated using multiple injections of 10 mM Glycine pH 2.0 and the running buffer. A reference surface (without any PHF-tau) was used to monitor non-specific binding of the injected mAbs or Fabs. HT7 antibody was used as a positive control. The binding sensorgrams for mAbs were fit using a bivalent binding model where the apparent affinity or avidity-driven binding (KD) was reported as the ratio of off-rate and on-rate (koff/kₒₙ). A 1:1 Langmuir binding model was used for kinetics analysis of Fabs.
The source holds these as a separate data set.

In test [9] the target is T2, Peptide-2. As to the kind of experiment: SPR ProteOn, peptide captured, Fab as analyte. As to the method:
as §3, §4, §5

Test [10] concerns the target T2, Peptide-2. Nature of the test: SPR ProteOn, mAb captured, peptide as analyte. As to the method:
as §3
(§9) Monoclonal antibody/Peptide binding. […] Anti-human IgG was amine-coupled to the chip surface using EDC/NHS, then washed with ethanolamine. Antibodies were diluted to 2 μg/mL in PBST and injected on the surface for 5 min at 30 μL/min to achieve a maximum density of 900-1000 RU. Peptides were injected as analytes at 60 μL/min for 3 min, followed by 5 min dissociation. Peptide-2 was diluted in PBST to generate a three-fold concentration series (0-30 nM) and measured in duplicate. Single measurements of monoclonal antibody binding to Peptide-8 were recorded over the concentration range 0-100 nM.
as §5

Test [11] has as its target T2, Peptide-2. As to the kind of experiment: SPR ProteOn, mAb captured, peptide as analyte; range of n=2; upper end of n=2 range. As to the method: as §3, §9, §5
The target in test [12] is T2, Peptide-2. Nature of the test: SPR ProteOn, mAb captured, peptide as analyte; range of n=2; lower end of n=2 range. The method, then:
as §3, §9
Data were double referenced by subtraction of the interspot response, and the curves generated by the buffer only injection. The chip surface was regenerated with 0.85% phosphoric acid, followed by PBST injection before the next antibody titration injection. Data processing and analysis were performed using instrument software. […]

The target of test [13] is T2, Peptide-2. Nature of the test: SPR ProteOn, mAb captured, peptide as analyte; range of n=2. As to the method: as §3, §9, §5
Test [14] deals with T1, PHF-tau (paired helical filament tau …). As to the kind of experiment: SPR ProteOn, PHF-tau capture-coupled via HT7, bivalent model. The method, then: as §1, §2
Test [15] has the same target. As to the kind of experiment: SPR ProteOn, PHF-tau capture-coupled via HT7, 1:1 model; upper end of range. As to the method: as §7, §8
Test [16] has the same target. Nature of the test: SPR ProteOn, PHF-tau capture-coupled via HT7, 1:1 model; lower end of range. As to the method:
as §7, §8

B1: B324 (Fab of B296) (Fab, V domains shown)
VH: QVQLVESGGGVVQPGRSLRLSCAASGFTFSSYAMSWVRQAPGKGLEWVASISKGGNTYYADSVKGRFTISRDNSKNTLYLQMNSLRAEDTAVYYCARGWGDYGWFAYWGQVTLVTVSS
VL: DIQMTQSPSSLSASVGDRVTITCKASQDINRYLNWFQQKPGKAPKSLIYRANRLLDGVPSRFSGSGSGTDFTLTISSLQPEDFATYYCLQYDEFPLTFGQGTKLEIK
notes: also called M324; B296 Fab
For the molecule B1, the Kd in [1] is 0.167 nM; with Peptide-2 [2], 0.234 to 0.376 nM; in test [8] it was 0.0632 nM; with Peptide-2 [9], 0.305 nM. In addition, the off-rate constant (koff) is 0.000136 s⁻¹ in [1]; 0.000161 s⁻¹ with Peptide-2 [3]; 0.000186 s⁻¹ with Peptide-2 [7]; 9.03e-05 s⁻¹ in [8]; 0.000174 s⁻¹ in the test with Peptide-2 [9]. Besides, the kon was found to be 816000 M⁻¹ s⁻¹ in [1]; 427000 M⁻¹ s⁻¹ with Peptide-2 [2]; 793000 M⁻¹ s⁻¹ with Peptide-2 [7]; 1.43e+06 M⁻¹ s⁻¹ in [8]; 610000 M⁻¹ s⁻¹ in the test with Peptide-2 [9]. In addition, in test [4], the EC50 was found to be 0.341 nM. For the same molecule, the “EC50 (read off the curve)” value in [5] is roughly 0.5 nM. Also, the “fold slower off-rate than B326” value in [6] stood at 1.7 fold. In [6], the “fold stronger affinity (KD) than B326” value was found to be 1.3 fold. The “fold weaker KD than the mouse PT3 parent Fab B187” value in [6] came to 2.5 fold.

B2: B235 (antibody, human IgG1, V domains shown)
VH: EVQLLESGGGLVQPGGSLRLSCAASGFTFSSYAMSWVRQAPGKGLEWVSSISKGGNTYYADSVKGRFTISRDNSKNTLYLQMNSLRAEDTAVYYCAKGWGDYGWFAYWGQVTLVTVSS
VL: DIQMTQSPSSLSASVGDRVTITCKASQDINRYLNWFQQKPGKAPKSLIYRANRLLDGVPSRFSGSGSGTDFTLTISSLQPEDFATYYCLQYDEFPLTFGQGTKLEIK
notes: Humanized (HFA) PT3 variant, human IgG1/kappa; also called VH91/VL77
Take B2: the Kd in the test with Peptide-2 [10] was 1.79 nM; with Peptide-2 [13], 1.71 to 1.86 nM; in test [14] it was 0.165 nM. Also, the koff was found to be 0.00569 s⁻¹ in the test with Peptide-2 [10], 0.0061 s⁻¹ with Peptide-2 [11], 0.00528 s⁻¹ with Peptide-2 [12] and 8.06e-05 s⁻¹ in test [14]. The kon with Peptide-2 [10] was 3.21e+06 M⁻¹ s⁻¹; with Peptide-2 [11], 3.58e+06 M⁻¹ s⁻¹; with Peptide-2 [13] it was 2.84e+06 M⁻¹ s⁻¹; in test [14] it was 490000 M⁻¹ s⁻¹.

B3: B330 (Fab of B711) (Fab, V domains shown)
VH: QVQLVESGGGVVQPGRSLRLSCAASGFTFTSYAMSWVRQAPGKGLEWVASITKGGNTYYADSVKGRFTISRDNSKNTLYLQMNSLRAEDTAVYYCARGWGIYGWFAYWGQVTLVTVSS
VL: DIQMTQSPSSLSASVGDRVTITCKASQDINRWLNWFQQKPGKAPKSLIYRANRLLDGVPSRFSGSGSGTDFTLTISSLQPEDFATYYCLQYDEFPLTFGQGTKLEIK
notes: the Fab's constant parts and tag are not described; also called M330; M333 (the Fab of B711)
B3: in test [15], the Kd is 0.0158 nM, the koff is 7.36e-05 s⁻¹ and the kon worked out at 4.66e+06 M⁻¹ s⁻¹. In [4], the EC50 was 0.107 nM. Further, the “EC50 (read off the curve)” value in test [5] was roughly 0.2 nM. For the same molecule, in test [8], the Kd was 0.0156 nM, the koff is 7.15e-05 s⁻¹ and the kon came to 4.6e+06 M⁻¹ s⁻¹. In test [16], this molecule showed a Kd of 0.0153 nM, a koff of 6.94e-05 s⁻¹ and a kon of 4.53e+06 M⁻¹ s⁻¹.
